{"source": "patent US20220056142A1", "about": "(Sanofi, published 2022)", "key": {"WT PRCs [1]": {"target": "T1, WT PRCs (mouse, UniProt Q61851)", "test": "cell-based or functional assay"}, "WT PRCs [2]": {"target": "T1, WT PRCs", "test": "cell-based or functional assay", "remark": "listed apart in the source"}, "[3]": {"target": "FGFR3 fused to β-galactosidase fragments (FGFR3-PK and FGFR3-EA) co-expressed in U2OS cells", "test": "cell-based or functional assay"}, "[4]": {"target": "T2, wild-type human FGFR3 isoform IIIc, full length, expressed on transfected cells (human, UniProt P22607 23-806)", "T2 construct": "also called wild-type FGFR3; FGFR3-300.19", "test": "FACS, cells transfected with wild-type FGFR3", "procedure": "(§1) After three washes, the cells were incubated with a fluorescent-conjugated secondary antibody (Invitrogen)."}, "[5]": {"target": "T3, human FGFR3 G380R isoform IIIc, full length, expressed on transfected cells (human, UniProt P22607 23-806)", "T3 construct": "also called mutant FGFR3; FGFR3^G380R-300.19", "test": "FACS, cells transfected with mutant FGFR3 (G380R)", "procedure": "as §1"}}, "data": [{"binder": "KC18_Hu18 (antibody, human IgG1, kappa, V domains shown) VH: EVQLVQSGAEVKKPGATVKLSCKASGDTFTDFEIHWVQQAPGKGLEWIGDVDPETGGTAYAEKFQGRATLTADRSTDTAYMELSSLRSEDTAVYYCTRTYDGYPYAFDYWGQGTLVTVSS VL: not shown", "values": [{"measurement": "IC50, inhibition of FGF18-stimulated Erk phosphorylation (pErk/Erk %, HTRF), 'Hu18 on WT PRCs'", "setting": "WT PRCs [1]", "value": 0.42, "unit": "µg/ml"}]}, {"binder": "KC18_Hu44 (antibody, human IgG1, kappa, V domains shown) VH: EVQLVQSGAEVKKPGATVKLSCKASGDTFTDFEIHWVQQAPGKGLEWIGDVDPETGGTAYAEKFQGRATLTADRSTDTAYLELSSLRSEDTAVYYCTRTYDGYPYAFDYWGQGTLVTVSS VL: not shown", "values": [{"measurement": "IC50, inhibition of FGF18-stimulated Erk phosphorylation (pErk/Erk ratio %, HTRF), 'Hu44 on WT PRCs'", "setting": "WT PRCs [2]", "value": 0.32, "unit": "µg/ml"}]}, {"binder": "KE94 (antibody, V domains shown, Mouse hybridoma monoclonal antibody) VH: QVQLQQSGAELVRPGASVTLSCKASGSTFTDFEIHWVKQTPVHGLEWIGAIDPETGGTAYNQKFKGKAILTAVKSSSTAYMGLRSLTSEDSAVYYCTRNYDGYSRTMDYWGQGTSVTVSS VL: NIMMTQSPSSLAVSAGEKVTMSCKSSQSVLYSSNQKNYLAWYQQKPGQSPKLLIYWASTRESGVPDRFTGSGSGTDFSLSISSVQTEDLAVYYCHQYLSSYTFGGGTRLEMK", "values": [{"measurement": "EC50, inhibition of FGF18-induced FGFR3 dimerization (RLU, beta-galactosidase complementation in U2OS cells); fitted curve 'KE94 with FGF18'", "setting": "[3]", "value": 0.102, "unit": "µg/mL"}, {"measurement": "binding result", "setting": "[4]", "value": "binds"}, {"measurement": "binding result", "setting": "[5]", "value": "binds"}]}]}
